Assay results reported in article PMC11255334, “Acetyl-CoA synthetase activity is enzymatically regulated by lysine acetylation using acetyl-CoA or acetyl-phosphate as donor molecule” (Nature Communications, 2024).
Positions count from the first letter of the chain named. Numbers in names are those of the source.

B1: AcuA W140A (enzyme, Bacillus subtilis, UniProt P39065 1-210, looked up)
chain: MEHHKTYHSANIKTATGSLLIEGPVSPEDLAGYEFHKDLTAFRPPREQHEALVDIAGLPEGRIIIARDGRTIVGYVTYLYPDPLERWSEGNMEDLIELGAIEVAPDYRGCAVGKTLLTVSMMDEQMENYIVMTTEYYWHADLKGMKKDVWEYRKIMEKMMNAGGLVWFATDEPEISSHPANCLMARIGKNVSQESIEQFDRLRFYHRYMY
notes: AcuA, Bacillus subtilis, UniProt P39065, with W140A
B2: AcuA W140F (enzyme, Bacillus subtilis, UniProt P39065 1-210, looked up)
chain: B1 chain with A140F
notes: AcuA, Bacillus subtilis, UniProt P39065, with W140F
B3: AcuA E97Q/E135Q (enzyme, Bacillus subtilis, UniProt P39065 1-210, looked up)
chain: B1 chain with E97Q, E135Q, A140W
notes: AcuA, Bacillus subtilis, UniProt P39065, with E97Q and E135Q; also called double mutant AcuA E97Q/E135Q
B4: Bacillus subtilis AMP-forming acetyl-CoA synthetase AcsA (enzyme, UniProt P39062 1-572, looked up)
chain: MNLKALPAIEGDHNLKNYEETYRHFDWAEAEKHFSWHETGKLNAAYEAIDRHAESFRKNKVALYYKDAKRDEKYTFKEMKEESNRAGNVLRRYGNVEKGDRVFIFMPRSPELYFIMLGAIKIGAIAGPLFEAFMEGAVKDRLENSEAKVVVTTPELLERIPVDKLPHLQHVFVVGGEAESGTNIINYDEAAKQESTRLDIEWMDKKDGFLLHYTSGSTGTPKGVLHVHEAMIQQYQTGKWVLDLKEEDIYWCTADPGWVTGTVYGIFAPWLNGATNVIVGGRFSPESWYGTIEQLGVNVWYSAPTAFRMLMGAGDEMAAKYDLTSLRHVLSVGEPLNPEVIRWGHKVFNKRIHDTWWMTETGSQLICNYPCMDIKPGSMGKPIPGVEAAIVDNQGNELPPYRMGNLAIKKGWPSMMHTIWNNPEKYESYFMPGGWYVSGDSAYMDEEGYFWFQGRVDDVIMTSGERVGPFEVESKLVEHPAIAEAGVIGKPDPVRGEIIKAFIALREGFEPSDKLKEEIRLFVKQGLAAHAAPREIEFKDKLPKTRSGKIMRRVLKAWELNLPAGDLSTMED
notes: AMP-forming acetyl-CoA synthetase AcsA, Bacillus subtilis, UniProt P39062; synthetic gene codon optimized for E. coli; also called AcsA wildtype; non-acetylated AcsA; source: E. coli BL21 (DE3), pET45b(+), purified (HisTrap FF, Ni2+)
B5: K549-acetylated Bacillus subtilis AcsA (enzyme, UniProt P39062 1-572, looked up)
chain: B4 chain
modifications: acetyl-lysine at K549
notes: AMP-forming acetyl-CoA synthetase AcsA, Bacillus subtilis, UniProt P39062, acetylated at K549 by AcuA; Formed in the sample from m1 and m2 before the SEC run; K549 is the major acceptor site by the K549R control; also called AcsA AcK549; acetylated AcsA; source: E. coli BL21 (DE3), purified; acetylated in vitro by AcuA with acetyl-CoA, or with AcP and CoA

Columns and labels:
AcsA•AcuA complex = biological target: T1, AcsA•AcuA complex (Bacillus subtilis, UniProt P39065); assay: lysine acetylation of AcsA K549, anti-AcK immunoblot and SEC; assay type: biochemical
T1 construct: both N-terminally His6-tagged, E. coli BL21 (DE3); AcuA 25,484 g/mol, monomer alone; apparent heterotetramer; AcsA K549 is the acetyl acceptor; with Acetyl-coenzyme A synthetase (AMP-forming)

[1] = biological target: B4; assay: SEC; analytical SEC of equimolar AcsA and AcuA (wild type or mutants), incubated 30 min at room temperature, Superdex 200 10/300 GL, 50 mM Tris/HCl pH 8, 50 mM KCl, 2 mM β-mercaptoethanol; 100 µl of 50–100 µM; without ligand or with a tenfold molar excess of CoA or AcP alone; settings: both partners purified
[2] = biological target: the molecule itself; assay: SEC; analytical SEC of the single proteins, Superdex 200 10/300 GL, 50 mM Tris/HCl pH 8, 50 mM KCl, 2 mM β-mercaptoethanol; 100 µl of 50–100 µM injected; MW from a calibration curve
[3] = biological target: the molecule itself; assay: SEC; analytical SEC of the preformed equimolar AcsA•AcuA complex pretreated with a tenfold molar excess of acetyl-CoA (excess also varied), 30 min at room temperature; fractions checked by anti-AcK immunoblot and Ponceau S

T1 sequence (P39065 whole entry, one chain of several): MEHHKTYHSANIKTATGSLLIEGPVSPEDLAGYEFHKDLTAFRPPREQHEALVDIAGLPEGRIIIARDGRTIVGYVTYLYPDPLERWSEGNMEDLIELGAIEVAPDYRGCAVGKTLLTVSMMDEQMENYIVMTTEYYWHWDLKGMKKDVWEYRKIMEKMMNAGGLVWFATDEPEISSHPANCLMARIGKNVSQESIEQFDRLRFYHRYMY

Molecule: CC(=O)SCCNC(=O)CCNC(=O)[C@H](O)C(C)(C)COP(=O)(O)OP(=O)(O)OC[C@H]1O[C@@H](n2cnc3c(N)ncnc32)[C@H](O)[C@@H]1OP(=O)(O)O [acetyl-CoA]
lysine acetylation of AcsA K549, anti-AcK immunoblot and SEC (AcsA•AcuA complex; 200 µM acetyl-CoA, AcuA 5 µM, AcsA 20 µM, acetyltransferase activity): addition of acetyl-CoA to AcsA and AcuA resulted in a strong acetylation of AcsA

Molecule: CC(=O)OP(=O)(O)O [AcP]
lysine acetylation of AcsA K549, anti-AcK immunoblot and SEC (AcsA•AcuA complex; intrinsic phosphotransacetylase activity, AcP with CoA as needed co-substrate, 37 °C): upon addition of CoA and AcP, AcsA was strongly acetylated

Molecule: B1
binding result [1]: binds

Molecule: B2
binding result [1]: binds

Molecule: B3
binding result [1]: binds

Molecule: B4
stoichiometry N [2]: 2

Molecule: B5
stoichiometry N [3]: 2
